From patent US10023615B2, “Efficient transport into white blood cells” (priority 2008, dated 2018)
Entries after “also recorded” stand apart in the source; their conditions may differ. Ends that are not written are not given here.

Columns and labels:
[1] = tested on: leucocytes (cd11b positive cells) in inflamed hind paw; assay: Immunohistochemistry and CD11b staining on paw from CFA-induced inflammation (4 h); type: in vivo, C57/Bl6 mice; settings: 10 μg/kg i.v. one hour prior to CFA; 4 h after CFA
Method: FIG. 19A, FIG. 19B, and FIG. 19C: Immunohistochemistry staining on paw from CFA-induced inflammation (4 h). Upper panels represent the Hematoxylin and Eosin (H&E) staining of hindpays. From left to right: a saline-treated animal which was not treated with CFA (Complete Freund's Adjuvant), a saline-treated animal which received CFA and a XG-102-(SEQ ID NO: 233) treated animal which also received a CFA injection. After CFA treatment, muscular and epithelial layers appear to be less organized due to edema. The presence of XG-102 (SEQ ID NO:233) positive cells was detected only in animal treated with XG-102 (upper right panel). […] 19A: Magnification ×20; 19B: Magnification ×40; 19C: Magnification ×100.
FIG. 20A represents the hind paw section of a CFA treated animal stained with three different dyes. The four upper panels represent the same portion at high magnification of a distal region. Distribution of the leucocyte marker (mainly granulocytes, macrophages and monocytes) cd11b (first from left) and XG-102 (SEQ ID NO: 233, second from left) as well as the Dapi nuclear stain (3rd from left) are indicated. The upper right panel represents the merge image of cd11b and XG-102 positive stain. […]

[2] = tested on: hAPP Tg mice (APP751 London and Swedish mutations); assay: Morris Water Maze in hAPP-transgenic mice; type: in vivo, mouse
Method: In order to determine the activity of the exemplary all-D retro-inverso IB(s) peptide XG-102 (SEQ ID NO: 233) in Alzheimer's disease, XG-102 (SEQ ID NO: 233) was evaluated in the hAPP-transgenic mice model overexpressing APP751 with London and Swedish mutations using the behavioral Morris Water Maze test as well as immunohistological tests measuring plaque load and ELISA tests measuring β-amyloid1-40 and β-amyloid1-42 levels in the brain of mice.
a) METHODS • i) Introduction • The study was designed to evaluate the efficacy of the test substance (XG-102, SEQ ID NO: 233) on behavioral, biochemical and histological markers using 5 months (±2 weeks) old female hAPP Tg mice. Therefore, mice were treated every two or three weeks up to 4 months and in the end of the treatment period behavior was evaluated in the Morris Water Maze. At sacrifice brain, CSF and blood were collected. Aβ40 and Aβ42 levels were determined in four different brain homogenate fractions as well as in CSF of Tg mice. Plaque load was quantified in the cortex and the hippocampus of 8 Tg animals per treatment group.
ii) Animals • Female Tg mice with a C57BU6xDBA background and an age of 5 months (±2 week) were randomly assigned to treatment groups 1 to 3 (n=12). […]

dqsrpvqpflnIttprkprpprrrqrrkkrg (DQSRPVQPFLNLTTPRKPRPPRRRQRRKKRG; not fully specified (some residues); printed as dqsrpvqpflnIttprkprpprrrqrrkkrg) [XG-102]
co-localization with cd11b positive leucocytes [1]: co-localizes with a certain leucocyte population | presence in leucocytes of inflamed paw (HRP staining) [1]: presence of XG-102 in infiltrating leucocytes | learning performance between day 1 and day 4 ([2]; 0.1 mg/kg): a tendency to have worse learning performance between day 1 and day 4; also recorded: a slightly poorer learning performance between the first and the last training day | spatial learning in the MWM ([2]; 0.1 mg/kg every two weeks or 10 mg/kg every three weeks s.c., four months): remained widely uninfluenced
